The record followed here is patent US7799901B2, “Modulators of the function of FAS receptors and other proteins” (Yeda Research and Development Co. Ltd., priority 1995, dated 2010).

One data set relates to HeLa cells. Nature of the data set: Cytotoxicity triggered by induced expression of MORT-1 in HeLa cells. The data set is classed as cell-based, human. To be noted: tetracycline-controlled transient expression; neutral red uptake or secreted placental alkaline phosphatase. As to the method: MORT-1, Fas-IC, p55-IC and luciferase cDNAs were inserted into a tetracycline-controlled expression vector and transfected to HtTA-1 cells (a HeLa cell line) (Gossen and Bujard, 1992) together with the secreted placental alkaline phosphatase cDNA, placed under control of SV40 promoter (the pSBC-2 vector, Dirks et al, 1993). Cell death was assessed 40 hours after transfection, either by the neutral-red uptake assay (Wallach, 1984) or, for assessing specifically the death in those cells that express the transfected cDNAs, by determining the amounts of placental alkaline phosphatase (Berger et al, 1988) secreted to the growth medium at the last 5 hours of incubation.
High expression of p55-IC results in triggering of a cytocidal effect (Boldin et al, 1995). The expression of Fas-IC in HeLa cells also has such an effect, though to a lower extent, which could be detected only with the use of a sensitive assay. The ligand independent triggering of cytocidal effects in cells transfected with MORT-1, as well as human p55-IC and FAS-IC, was thus analyzed. The effect of transient expression of MORT-1, human Fas-IC, human p55-IC, or luciferase that served as a control, on the viability of HeLa cells was assessed using a tetracycline-controlled expression vector. […]

For data set [1], the system named is Fas/APO1 cytotoxicity (p55-Fas chimera) in 293-EBNA cells. In kind it is cell-based, human. To be noted: co-transfection. As to the method:
In brief, 293-EBNA cells, MCF7 human breast carcinoma cells and HeLa HtTA-1 cells were grown in Dulbecco's modified Eagle's minimal essential medium supplemented with 10% fetal calf serum, nonessential amino acids, 100 U/ml penicillin and 100 μg/ml streptomycin. Cell tissue culture dishes (5×10^5 293-EBNA cells, 3×10^5 s MCF7 cells or 3×10^5 HeLa cells in 6-cm dishes) were transiently transfected, using the calcium phosphate precipitation method, with the cDNAs of the indicated proteins together with the β-galactosidase expression vector. In the experiments presented in FIGS. 14A-D and 15, each dish was transfected with 3.5 μg of the indicated MACH construct and 1.5 μg of pSV-β-gal. In the experiments presented in FIGS. 16A-D and 17-19, each dish was transfected with 2.5 μg of the indicated MACH or MORT1 construct (or, as control, empty vector) and 1.5 μg of pSV-β-gal. The cells were rinsed 6 to 10 h after transfection. The 293-EBNA and MCF7 cells were incubated for a further 18 h without additional treatment. […] The extent of cell death at the end of the incubation periods was assessed by determination of β-galactosidase expression, as described by Kumar et al, 1994. […]
In particular, FIGS. 16A-D show morphology of 293-EBNA cells in which cell death was induced by transient expression of a chimera comprised of the extracellular domain of the p55-R (amino acids 1-168) fused to the transmembrane and intracellular domains of Fas/APO1 (amino acids 153-319) (p55-Fas chimera) (FIGS. 16A and 16B), or by expression of the p55-R (FIGS. 16C and 16D), and of cells that were protected from these cytotoxic effects by their simultaneous transfection with MACHα1 (C360S) (FIGS. 16B and 16D). […] FIG. 17 illustrates the quantification of death induced in 293-EBNA cells by their transfection with p55-Fas chimera or with p55-R, together with an empty vector, a MORT1 deletion mutant lacking the MACH-binding region (MORT1 (92-208)), or MACHα molecules containing a nonfunctional CED3/ICE region. […] Data are from at least two independent experiments and are expressed as in FIGS. 14A-F and 15.

B1: MORT-1: Mediator of Receptor-induced Toxicity; protein binding the intracellular domain of FAS-R, SEQ ID NO:2 (protein)
chain: VNQAPECRFGGGILGPLGKRRDLARASEPRTEGARRAGPQPRPLADPAMDPFLVLLHSVSSSLSSSELTELKFLCLGRVVKRKLERVQSGLDLFSMLLEQNDLEPGHTELLRELLASLRRHDLLRRVDDFEAGAAAGAAPGEEDLCAAFNVICDNVGKDWRRLARQLKVSDTKIDSIEDRYPRNLTERVRESLRIWKNTEKENATVAHLVGALRSCQMNLVADLVQEVQQARDLQNRSGAMSPMSWNSDASTSEAS
Consider B1, for which the “cell death on expression in HeLa cells” value in the data set on HeLa cells is given as “significant cell death”.

B2: MACHα1 (C360S): MACHα1 mutant in which the catalytic cysteine Cys360 is replaced by Ser (protein)
chain: MDFSRNLYDIGEQLDSEDLASLKFLSLDYIPQRKQEPIKDALMLFQRLQEKRMLEESNLSFLKELLFRINRLDLLITYLNTRKEEMERELQTPGRAQISAYRVMLYQISEEVSRSELRSFKFLLQEEISKCKLDDDMNLLDIFIEMEKRVILGEGKLDILKRVCAQINKSLLKIINDYEEFSKERSSSLEGSPDEFSNGEELCGVMTISDSPREQDSESQTLDKVYQMKSKPRGYCLIINNHNFAKAREKVPKLHSIRDRNGTHLDAGALTTTFEELHFEIKPHDDCTVEQIYEILKIYQLMDHSNMDCFICCILSHGDKGIIYGTDGQEAPIYELTSQFTGLKCPSLAGKPKVFFIQASQGDNYQKGIPVETDSEEQPYLEMDLSSPQTRYIPDEADFLLGMATVNNCVSYRNPAEGTWYIQSLCQSLRERCPRGDDILTILTEVNYEVSNKDDKKNMGKQMPQPTFTLRKKLVFPSD
As to B2, the “protection against Fas/APO1 cytotoxicity (p55-Fas chimera)” value in data set [1] is listed as “protected”.
